In the NTF2 design screens of Basanta et al. (2020):

assay: protease stability score; higher = more stable; yeast display proteolysis, trypsin and chymotrypsin;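 further: log10 excess protease needed over predicted unfolded state with 0 meaning unfolded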

Sequence	protease stability score
DDTAVKIATRFWKAVETNDEQTLRDNLDPNVEVRYGDKTYHGMEDILKRLRHDADNMRHKVEIKDYRTHNGQANIDMVVRQEHNGKPERRRFKLHFRISNGRVRTMKLNDDS	0.733
DDTAVRIWEKLLSALRTGNEQEVEKNLDPNATVVIGDKRVSGREEVKRMVRRLLTTMRLNVKSVENRDQPGHADVQYTVQFNHNGRPREDRWVVIVRVKNGKIQTVVMKENP	1.12
DDTDQAEKMMEKLKDAFDTGDEDQVLKLADKDVKVDVGDKSYHGKEEYLDLFRHWLKKVDHLRLEVKHVNQNGDEISVTAKLVLDNNGETTDHTLHLVARSVNGDVVLQSMNNG	1.16
DDTHTAEEWFHHLMNILKTNDPDRFANQFDKDARLHYGDTEVRGRENMIEFLRHMVKRIDHQSYTLLQIRVSNGRVEIKVRASMKYDGRVIDDNVEFEADLRGDKIKARQVNIG	0.564
DDTKTARELVENLNEAFEKGDEDQFVSNLPPDARIEVGDRQVHGREQLKKWFDEMVERFDHMRIEVRHVEHHNGDVRVSARMQWQHNGREQSDSVEVVFVNDNGRLKMHVLRYG	1.5
DDTLKRRISELLRAEKHNDPDKINRLFDPNAHIEYGDHRIHGREELKRQITKRMKELRFRIDRVDLEVKGNHARLRIDMTQNHNGTPRRMILDVKINASNGTIHSVDVKLDG	0.297
DDTMIRRLTEWWRAFEHNNSNQMKELADPNAKFSYGDKTVTGMDDIAKQLVNEAREMRVEIRHMKVEQHGEKVRVDFEYEIRDNGRPHTNRVVLEAHQHNGKIQSVQVKDDR	0.356
DDTNVRKVKEYLKAVEHGDEETLRENVDENATVQVGDHSIHGMDNIAKKIKKDRDELRWEIKELEAEAHNGHVNVRVDARYEVNGNPIEDKFTMHFKFENGRVESVEIRVPEEFQKRVDR	0.165
DDTQAREQAHRFMEAMRTGDPDTLRKLMDKDVRVTVGDHTYHGRESVAHAVITMVESIDHISVKDIKVENGTARVDFVVTVNGRRQSYDAVLEVDNGRIRYVQMHEK	0.857
DDTQRKRIEEYWTAVKTGDEDRLTELVDEDARVRIGDKEWSGREEIVRRIHDHVRQMRVSLEFKRITVNNGKVQLHAEVEYEHNGKPDTAKVELSMELTNGKFKSNDMQIHK	0.607
DDTRKAKELADRIVKAIKHGDEEYYERLVDKDVHADVGDRTVRGSETLVNTFQHEVEKADHIDAKVRSVSAHNGKIHISITVVVDVNGQQNSKEYTVIANTSNGRVRVEQINFK	0.454
DDTRVKFALHLIKLEETGDEDKLRELMDPNAKISVGDKTYHGREEIVRELRRENHEMRVRIKQFRSTASGEKVRITMDAEFEHNGKPDRFELEVVFDFTNGRVKHIELHERR	1.22
DDTTRAKEWAEELNRIYRNGDPKELEKQMDKDVRLIIGEKHIHGRSQAMNWMRELMKKADHIELRIHDVKVQGENVTVVVVYRINVNGRDVQRRVIIVAEVHNGHLKIKEMHES	1.88
DDTVKEQAEKFFTAQNTGNPDQIANLVDPNARFTIGDKEYHGRENFKSWMETVRDKMDVDYQITDLKTDENHADVVAEYTSTHNGQPERRRMRVDMRLSNGRMKEVNIEDRS	-0.503
DDTVQRMVDKFLENLKTGNEEDISKMADPNVSLNYGDKRIHGREQLMQWVERQEKEMRVEFQIRHVDVHGNKAHVTADMRIHNNGDPDNARVQFVVNAQGDKVKTITFHKTR	-0.14
DDTVRELVKQLRTALESNDEKKVKRLVDPNAQFQYGDKTLHGMTHAASRRVKEHQEIRLSIKKFHVNVSGDHVRVEFRYEVNVNGRPRKASATFTARFENGKMKEQRLRFDEDEYRKLKK	0.063
DEDAAKDYETIVKQQESGDEDKVRQNVDPNAKWHIGEKKVHGRESLANEVHRVRRQMNERMEVKTVKDQGDKANVEMRVVQQHNGEPKDYTMQVDVHAHNGRLREVKATEQS	-0.388
DEDAARKIRKLVEDWANGDPQSVADQMDENAEVHIGDQTLHGRDHVRKFVEKLSEQIRISVQSVTVRASGNHITAHVQMEVDVNGHPDTITFRIHADVDNGRIKSMEYRMDEQEQRKRTS	0.346

Sequence	protease stability score
DEDAARRMLEFLRQMEQGNEHELRHLADPNARMRVGDHTLHGMEDIAREQVERNRRLRFSNKVDRIKNDGDKVNLQIRFQIDVNGKPFTDVVSVNVHEHNGKIEFVEFRVPEEFREKVKR	0.1
DEDAARSAEHLQRHNDFDEFARRADENVRLRVGDFRFQGREQVIRFMKRFTDRFDHVQFRRMDFHGNRMQAEFVAEVNGKTVKMKESFQIDNGRVHSVTQEATSEEDQEELKRLID	0.254
DEDADRKFQDMVENEHRGDNDKLKKMADKNVKFTVGDKSIHGMEDYATEVRKRKERSRVRYKDVRSNDHNGRVVVKFDAQRNHNGQPKDFHVTVHFRMENGKLKEMEVRTDQ	0.052
DEDADRVFEEFIRAKTRGDPDRLSQLVDPNVRMHVGDQELRGRDTVRRFLHEVLHHARNDIHIQSMEVDGDHVSVEFKATTEHNGQPRTDRMTASAKIDNGRIKSLQEHSKK	-0.297
DEDAEKHWRTFLRNQKTGDEQKMRDQVDPNARASIGDQEVEGREKIVRELVEEFRHMHVQINWKSLTAHNGKVHAHADAQVDHNGRPQTYKITASAQFSNGKIKEFKMQRRP	-0.013
DEDAEREIDRLVRDNNEEDIERLMPEDAKMQVGDKTVTGRENIATQIKRLNQKADHRRIDKITLQGERVVINFTIVVNGTKFKAKIVLHAHNGKIKVVVLRARDEDLDREMSKVMN	0.028
DEDAERHVTEMIHAYKHNNPEKVQTYMDKHVKIKVGDKTVKGREERAKELRKQKDQMRVDYDVHSMNVKGDKITARLRVDITVNGQPHTFEYHLIVKWTNGKIQELSVEFPEEDQKKQSR	-0.086
DEDAERLINQLLTAERRGNPDQVMQQVDKNATQTVGDKHIHGREDISREVEKRKRESRVDRKVESIDIRGNQARIEVHFEEDRNGKPVTSAQTMDITFHNGVVHERKVQDDS	-0.743
DEDAERRMREQLKVFNRGNPDQMVKYMDKDARIEVGDTVVEGREDWRHEIDKQKKEAKYKIDVKRVDVDGDDLTIDATISVDHNGKPREKKLIVEAKLHNGKLKHARYDNRG	-0.05
DEDAFRVWRRLLSAIRDGDEDKVRNQADENATATIGDKTWHGMTTLAHELVHEARNLRFTQRITHYSVDNGRVNADYRFTKNENGRPQEDRVLVRFVAHNGQLKSVHNTKIS	0.131
DEDAHKRYEHIERVMEHGDESTLEQLMDPNARIQVGDKEVRGMNKWAKEVAEEIRQMEVRVDIKSVDVRGNRVRVEAKYTVNVNGRPKTATKEVVLDFENGRVSYVQVRFDPDRKKSIDQ	0.443
DEDAHRLVEEFWRALKDGDSEQIKELADKDVHVQVGDTKVHGREELASQVQRERDQMSVDLKIDHVELNEDHVDVEAKMVVEHNGKPKTNKAKLDFRFHNGKLQMMRRQTRQ	-0.184
DEDAHRRASTLMTAIENNDPHKVMQMFDEDAKVDVGDKRVSGRERQAEEERERNTQSRVRYKSYKIDAQGNKVRVHADFEVHHNGRPDRKRMKAVFNYDNGKIKQATVKDDK	-0.235
DEDAIRSVEKMLQDRRTGNPHEVQKMFDPNAQVDVGDKTVQGRENIKDHVETDLRQSRFHMEIKHVQAHNGQIDIDAERSYTRNGQPDSNRVEIVIDIKNGKIRSVKVRTDD	-0.488
DEDAIRVANEILKAIKEGDPHQIEEQFDKHARATYGDKTIEGSKNIMNFQKQMMDRASIKIDSVRLKNQGDHANLDYRAKVTHNGTPNDRRFTADVTVRNGKMRVFDVESRP	-0.365
DEDAKKQVETMIRLIERGNEKEIKKQMDPNATYQVGDNRLHGMDQVNKHLKDLKEQMRFVFDVKSITVRGDKVDIDLQLDKNENGRPDKEDARMIVHVHNGSVKSVIVTTRG	0.143
DEDAKRSLNELWKAIQQGDPDRIRELIDKNVRLRYGEKRIHGRDQAAKFWHDLHDHARFKVRDVSIKIHNGRADVRMRMTIHINGEPLDVTVIYKIEFHNGQAVRIELEVDEDQLRKQRK	0.845
DEDAKRVANEISKAFDQNDPDKARQLADENAEVQIGDKVLHGRDQATNQLERQREEQNEHVDSVEIDVDGDKLKVRIHFNSHSNGRPRRNTRTYTIVVRNGHLQHLDMKENG	-0.246
